Columns and labels:
[1] = tested on: DLD-1; assay: Drug combination screen (ATPlite, Synergy Score), DLD-1; conditions: compound in combination with IgG1-hDR5-01-G56T-E430G + IgG1-hDR5-05-E430G; DLD-1; 120 hour ATPlite, 6x6 matrix
[2] = tested on: HCT 116; assay: Drug combination screen (ATPlite, Synergy Score), HCT 116; conditions: compound in combination with IgG1-hDR5-01-G56T-E430G + IgG1-hDR5-05-E430G; HCT 116; 120 hour ATPlite, 6x6 matrix
[3] = tested on: LS-411N; assay: Drug combination screen (ATPlite, Synergy Score), LS-411N; format: cell-based, human; conditions: compound in combination with IgG1-hDR5-01-G56T-E430G + IgG1-hDR5-05-E430G; LS-411N; 72 hour ATPlite, 6x6 matrix
[4] = tested on: SNU-C2B; assay: Drug combination screen (ATPlite, Synergy Score), SNU-C2B; conditions: compound in combination with IgG1-hDR5-01-G56T-E430G + IgG1-hDR5-05-E430G; SNU-C2B; 72 hour ATPlite, 6x6 matrix
[5] = tested on: SW480; assay: Drug combination screen (ATPlite, Synergy Score), SW480; format: cell-based, human; conditions: compound in combination with IgG1-hDR5-01-G56T-E430G + IgG1-hDR5-05-E430G; SW480; 72 hour ATPlite, 6x6 matrix

B1: TNF-related apoptosis-inducing ligand (protein, UniProt P50591 1-281, looked up)
Tumor necrosis factor ligand …: MAMMEVQGGPSLGQTCVLIVIFTVLLQSLCVAVTYVYFTNELKQMQDKYSKSGIACFLKEDDSYWDPNDEESMNSPCWQVKWQLRQLVRKMILRTSEETISTVQEKQQNISPLVRERGPQRVAAHITGTRGRSNTLSSPNSKNEKALGRKINSWESSRSGHSFLSNLHLRNGELVIHEKGFYYIYSQTYFRFQEEIKENTKNDKQMVQYIYKYTSYPDPILLMKSARNSCWSKDAEYGLYSIYQGGIFELKENDRIFVSVTNEHLIDMDHEASFFGAFLVG
Synergy Score DLD-1 [1]: 0 | Synergy Score HCT-116 [2]: 0 | Synergy Score LS-411N [3]: 0.1 | Synergy Score SNU-C2B [4]: 0.2 | Synergy Score SW480 [5]: 0.9

Reference: patent publication US20200247897A1, “THERAPEUTIC ANTIBODIES BASED ON MUTATED IGG HEXAMERS” (GENMAB B.V., priority 2017, published 2020)
